Measured values as given in patent US20140087995A1 (published 2014).
Numbered stars: 1 amine (or outer) side, 2 acyl side, 3 side chain; on linkers, the order of the positions; unused ones are H or OH. Bridge positions count the residues as written; N and C are the ends. Side chains are listed from the residue outwards. Ends that are not written are not given here. * marks the point of attachment. C20 diacid = O=C(O)CCCCCCCCCCCCCCCCCCC(=O)*; γGlu = O=C(O)[C@H](CCC(=O)[*:2])N[*:1]; AEEA = NCCOCCOCC(=O)O

Assays:
[1] = molecular target: T1, human amylin receptor (amylin 3(a) receptor: human calcitonin receptor plus RAMP-3) (human, UniProt P30988 25-474; O60896 24-148); assay: SPA competition binding, displacement of 125I-rat amylin, membranes of BHK amylin 3(a)/CRE-luc cells
T1 construct: whole, on cells; functional assay (II)a used the whole cells; also called hAmylin-R; hAmylinR
T1 sequence (looked up) 1: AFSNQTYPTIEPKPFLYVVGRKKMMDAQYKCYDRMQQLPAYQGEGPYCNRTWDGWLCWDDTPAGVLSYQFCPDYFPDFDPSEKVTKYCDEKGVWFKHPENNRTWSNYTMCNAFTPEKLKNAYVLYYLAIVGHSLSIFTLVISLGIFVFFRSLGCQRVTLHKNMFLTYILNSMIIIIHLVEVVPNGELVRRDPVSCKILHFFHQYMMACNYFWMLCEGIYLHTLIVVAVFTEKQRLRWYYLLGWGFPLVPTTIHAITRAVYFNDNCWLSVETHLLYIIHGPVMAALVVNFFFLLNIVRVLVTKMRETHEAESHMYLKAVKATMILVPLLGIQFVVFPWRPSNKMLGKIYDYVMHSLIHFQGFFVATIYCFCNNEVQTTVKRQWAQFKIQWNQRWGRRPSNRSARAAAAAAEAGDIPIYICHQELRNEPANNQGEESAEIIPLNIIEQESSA
T1 sequence (looked up) 2: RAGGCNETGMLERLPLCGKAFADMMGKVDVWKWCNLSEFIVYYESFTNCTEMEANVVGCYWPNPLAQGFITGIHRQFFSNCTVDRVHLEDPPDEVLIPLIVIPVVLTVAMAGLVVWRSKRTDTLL
Protocol: The binding assay was performed using scintillation proximity assay (SPA) beads (RPNQ0001) from PerkinElmer and cell membranes from the Amylin 3(a)/CRE-luc cells (as described in Assay (II)) were used. Membranes were prepared in the following way; the cells were rinsed with PBS and incubated with Versene for approximately 5 min before harvesting. The cells were flushed with PBS and the cell-suspension was centrifuged for 5 min at 1000 rpm. Cells were homogenized (ultrathurrax) in a buffer containing 20 mM Na-HEPES and 10 mM EDTA (pH 7.4) and centrifuged at 20.000 rpm for 15 min. The resulting pellet was resuspended, homogenized and centrifuged (20.000 rpm, 15 min) in a buffer containing 20 mM Na-HEPES and 0.1 mM EDTA (pH 7.4, buffer 2). The resulting pellet was resuspended in buffer 2 and protein concentration was measured (BCA protein Assay, Pierce). The homogenate was kept cold during the whole procedure. The membranes were kept at −80° C. until use. The assay was performed in a 384 well Optiplate (PerkinElmer) in a total volume of 40 ul. Membranes were mixed with SPA beads. Final concentration of membranes 35 ng/μL final and SPA beads was 0.05 mg/well. Test-compounds were dissolved in DMSO and further diluted in assay buffer (50 mM Hepes, pH 7.4, 1 mM CaCl2, 5 mM MgCl₂, 0.1% OA and 0.02% Tween20). […] The final mixture was incubated with shaking at 400 rpm for 120 min at 25° C. prior to centrifugation (1500 rpm, 10 min). Samples were analyzed on TopCounter™ (Packard). The IC₅₀ was calculated using (one site binding competition analysis) GraphPad Prism5 as a measure of receptor affinity.

[2] = molecular target: T2, human calcitonin receptor (human, UniProt P30988 25-474); assay: cell-based or functional assay
T2 sequence (looked up): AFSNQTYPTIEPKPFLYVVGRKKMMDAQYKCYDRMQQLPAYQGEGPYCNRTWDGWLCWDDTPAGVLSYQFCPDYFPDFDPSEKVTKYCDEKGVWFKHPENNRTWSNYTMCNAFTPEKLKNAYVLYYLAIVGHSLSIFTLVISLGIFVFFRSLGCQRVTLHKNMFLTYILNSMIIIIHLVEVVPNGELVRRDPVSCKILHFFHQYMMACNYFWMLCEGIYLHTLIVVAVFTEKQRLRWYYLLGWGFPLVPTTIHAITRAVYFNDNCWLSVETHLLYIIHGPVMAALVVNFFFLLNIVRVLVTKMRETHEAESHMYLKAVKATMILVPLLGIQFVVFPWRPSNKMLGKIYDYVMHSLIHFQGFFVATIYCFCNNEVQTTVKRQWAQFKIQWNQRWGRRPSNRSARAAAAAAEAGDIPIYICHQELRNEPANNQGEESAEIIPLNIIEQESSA

[3] = molecular target: T1, human amylin receptor (amylin 3(a) …); assay: cell-based or functional assay

Binder | IC50 [1] | hCTR funct. EC50 (pM) [2] | Ratio hCT/hAmylin funct. [3] | hAmylin-R funct. EC50 (pM) [3]
{C20 diacid-γGlu}-KCNTATCATQRLANFLRHSSPNFGAIPSSTNVGPETY-NH2 (disulfide 2-7; SMILES CC[C@H](C)[C@H](NC(=O)[C@H](C)NC(=O)CNC(=O)[C@H](Cc1ccccc1)NC(=O)[C@H](CC(N)=O)NC(=O)[C@@H]1CCCN1C(=O)[C@H](CO)NC(=O)[C@H](CO)NC(=O)[C@H](Cc1c[nH]cn1)NC(=O)[C@H](CCCNC(=N)N)NC(=O)[C@H](CC(C)C)NC(=O)[C@H](Cc1ccccc1)NC(=O)[C@H](CC(N)=O)NC(=O)[C@H](C)NC(=O)[C@H](CC(C)C)NC(=O)[C@H](CCCNC(=N)N)NC(=O)[C@H](CCC(N)=O)NC(=O)[C@@H](NC(=O)[C@H](C)NC(=O)[C@@H]1CSSC[C@H](NC(=O)[C@H](CCCCN)NC(=O)CC[C@H](NC(=O)CCCCCCCCCCCCCCCCCCC(=O)O)C(=O)O)C(=O)N[C@@H](CC(N)=O)C(=O)N[C@@H]([C@@H](C)O)C(=O)N[C@@H](C)C(=O)N[C@@H]([C@@H](C)O)C(=O)N1)[C@@H](C)O)C(=O)N1CCC[C@H]1C(=O)N[C@@H](CO)C(=O)N[C@@H](CO)C(=O)N[C@H](C(=O)N[C@@H](CC(N)=O)C(=O)N[C@H](C(=O)NCC(=O)N1CCC[C@H]1C(=O)N[C@@H](CCC(=O)O)C(=O)N[C@H](C(=O)N[C@@H](Cc1ccc(O)cc1)C(N)=O)[C@@H](C)O)C(C)C)[C@@H](C)O, also called compound 29) | 0.577 nM | 857 pM | 8.7 | 99 pM
{C20 diacid-γGlu}-KCNTATCATQRLAHFLRHSSPNFGAIPSSTNVGSETY-NH2 (disulfide 2-7; SMILES CC[C@H](C)[C@H](NC(=O)[C@H](C)NC(=O)CNC(=O)[C@H](Cc1ccccc1)NC(=O)[C@H](CC(N)=O)NC(=O)[C@@H]1CCCN1C(=O)[C@H](CO)NC(=O)[C@H](CO)NC(=O)[C@H](Cc1c[nH]cn1)NC(=O)[C@H](CCCNC(=N)N)NC(=O)[C@H](CC(C)C)NC(=O)[C@H](Cc1ccccc1)NC(=O)[C@H](Cc1c[nH]cn1)NC(=O)[C@H](C)NC(=O)[C@H](CC(C)C)NC(=O)[C@H](CCCNC(=N)N)NC(=O)[C@H](CCC(N)=O)NC(=O)[C@@H](NC(=O)[C@H](C)NC(=O)[C@@H]1CSSC[C@H](NC(=O)[C@H](CCCCN)NC(=O)CC[C@H](NC(=O)CCCCCCCCCCCCCCCCCCC(=O)O)C(=O)O)C(=O)N[C@@H](CC(N)=O)C(=O)N[C@@H]([C@@H](C)O)C(=O)N[C@@H](C)C(=O)N[C@@H]([C@@H](C)O)C(=O)N1)[C@@H](C)O)C(=O)N1CCC[C@H]1C(=O)N[C@@H](CO)C(=O)N[C@@H](CO)C(=O)N[C@H](C(=O)N[C@@H](CC(N)=O)C(=O)N[C@H](C(=O)NCC(=O)N[C@@H](CO)C(=O)N[C@@H](CCC(=O)O)C(=O)N[C@H](C(=O)N[C@@H](Cc1ccc(O)cc1)C(N)=O)[C@@H](C)O)C(C)C)[C@@H](C)O, also called compound 30) | 0.919 nM | 1680 pM | – | 134 pM
K([AEEA-AEEA-γGlu-C20 diacid])CNTATCATQRLANFLRHSSPNFGAIPSSTNVGSETY-NH2 (disulfide 2-7; N-terminus assumed; SMILES CC[C@H](C)[C@H](NC(=O)[C@H](C)NC(=O)CNC(=O)[C@H](Cc1ccccc1)NC(=O)[C@H](CC(N)=O)NC(=O)[C@@H]1CCCN1C(=O)[C@H](CO)NC(=O)[C@H](CO)NC(=O)[C@H](Cc1c[nH]cn1)NC(=O)[C@H](CCCNC(=N)N)NC(=O)[C@H](CC(C)C)NC(=O)[C@H](Cc1ccccc1)NC(=O)[C@H](CC(N)=O)NC(=O)[C@H](C)NC(=O)[C@H](CC(C)C)NC(=O)[C@H](CCCNC(=N)N)NC(=O)[C@H](CCC(N)=O)NC(=O)[C@@H](NC(=O)[C@H](C)NC(=O)[C@@H]1CSSC[C@H](NC(=O)[C@@H](N)CCCCNC(=O)COCCOCCNC(=O)COCCOCCNC(=O)CC[C@H](NC(=O)CCCCCCCCCCCCCCCCCCC(=O)O)C(=O)O)C(=O)N[C@@H](CC(N)=O)C(=O)N[C@@H]([C@@H](C)O)C(=O)N[C@@H](C)C(=O)N[C@@H]([C@@H](C)O)C(=O)N1)[C@@H](C)O)C(=O)N1CCC[C@H]1C(=O)N[C@@H](CO)C(=O)N[C@@H](CO)C(=O)N[C@H](C(=O)N[C@@H](CC(N)=O)C(=O)N[C@H](C(=O)NCC(=O)N[C@@H](CO)C(=O)N[C@@H](CCC(=O)O)C(=O)N[C@H](C(=O)N[C@@H](Cc1ccc(O)cc1)C(N)=O)[C@@H](C)O)C(C)C)[C@@H](C)O, also called compound 25) | 0.768 nM | 10000 pM | 46.2 | 217 pM
{C20 diacid-γGlu}-KCNTATCATQRLAEFLRHSSPNFGAIPSSTNVGSHTY-NH2 (disulfide 2-7; SMILES CC[C@H](C)[C@H](NC(=O)[C@H](C)NC(=O)CNC(=O)[C@H](Cc1ccccc1)NC(=O)[C@H](CC(N)=O)NC(=O)[C@@H]1CCCN1C(=O)[C@H](CO)NC(=O)[C@H](CO)NC(=O)[C@H](Cc1c[nH]cn1)NC(=O)[C@H](CCCNC(=N)N)NC(=O)[C@H](CC(C)C)NC(=O)[C@H](Cc1ccccc1)NC(=O)[C@H](CCC(=O)O)NC(=O)[C@H](C)NC(=O)[C@H](CC(C)C)NC(=O)[C@H](CCCNC(=N)N)NC(=O)[C@H](CCC(N)=O)NC(=O)[C@@H](NC(=O)[C@H](C)NC(=O)[C@@H]1CSSC[C@H](NC(=O)[C@H](CCCCN)NC(=O)CC[C@H](NC(=O)CCCCCCCCCCCCCCCCCCC(=O)O)C(=O)O)C(=O)N[C@@H](CC(N)=O)C(=O)N[C@@H]([C@@H](C)O)C(=O)N[C@@H](C)C(=O)N[C@@H]([C@@H](C)O)C(=O)N1)[C@@H](C)O)C(=O)N1CCC[C@H]1C(=O)N[C@@H](CO)C(=O)N[C@@H](CO)C(=O)N[C@H](C(=O)N[C@@H](CC(N)=O)C(=O)N[C@H](C(=O)NCC(=O)N[C@@H](CO)C(=O)N[C@@H](Cc1c[nH]cn1)C(=O)N[C@H](C(=O)N[C@@H](Cc1ccc(O)cc1)C(N)=O)[C@@H](C)O)C(C)C)[C@@H](C)O, also called compound 18) | 0.554 nM | 742 pM | 4.8 | 154 pM
{C20 diacid-γGlu}-KCNTATCATQRLAEFLRHSSPNFGAILPSTNVGSETY-NH2 (disulfide 2-7, also called compound 33) | 0.915 nM | 528 pM | 2.2 | 243 pM
